Laboratory results published in patent US20040081659A1 (MERCK, published 2004).

B1: 4-O-(Ac-4-trans-L-HypSSChgQ-S(dS)-4-trans-L-Hyp)-dAc-VIN (peptide)
peptide: XSSXQSXX
modifications: N-terminal acetyl; 4-trans-L-hydroxyproline at 1 and 8; Chg at 4; D-Ser at 7; C-terminus esterified to the 4-O of des-acetylvinblastine
B2: 4-O-[(2-OH)Ac-SChgQSS-Sar]-dAc-VIN (peptide)
peptide: XXQSSX
modifications: N-terminal hydroxyacetyl ((2-OH)Ac); Chg at 2; sarcosine at 6, esterified to the 4-O of des-acetylvinblastine
B3: 4-O-(Ac-4-trans-L-HypSSChgQSS-(d)-Pro)-(dAc)-VIN (peptide)
peptide: XSSXQSSP
modifications: N-terminal acetyl; 4-trans-L-hydroxyproline at 1; Chg at 4; D-Pro at 8, esterified to the 4-O of des-acetylvinblastine

Target: free prostate specific antigen (PSA) (human, UniProt P07288 25-261)
Assay: cell-based or functional assay

Binder | Time to 50% Substrate Cleavage by York PSA (Min); cell gives percent cleaved at 1 hour [% cleaved at 1 hour]
B1 | 12
B2 | 4
B3 | 34
